The results in this text go back to patent US20170035903A1 (GAMAMABS PHARMA, published 2017).

Where a chain is given by its changes, count along the chain named. Numbers in names are those of the source.

As usually defined, the EC50 is the midpoint of the concentration-response curve. Read a low EC50 as an effect from little substance. By Kd is commonly meant the free concentration of one partner at which half of the binding sites on the other are occupied at equilibrium, for simple one-to-one binding. Broadly, the koff is the first-order rate constant of dissociation. High values mean fast dissociation, low ones slow dissociation. By kon is commonly meant the rate constant with which the complex forms. Low values mean slow association, high ones fast association.

Test [1] concerns the target T1, human anti-Müllerian hormone type II receptor (AMHR-II) on COV434 cells (human, UniProt Q16671 18-573).
T1 construct: Receptor at the surface of the COV434 AMHR-II transfected line (about 20000 receptors) or the COV434 WT line (about 2000 receptors); also called AMHR2; AMHR-II surface receptor
T1 sequence: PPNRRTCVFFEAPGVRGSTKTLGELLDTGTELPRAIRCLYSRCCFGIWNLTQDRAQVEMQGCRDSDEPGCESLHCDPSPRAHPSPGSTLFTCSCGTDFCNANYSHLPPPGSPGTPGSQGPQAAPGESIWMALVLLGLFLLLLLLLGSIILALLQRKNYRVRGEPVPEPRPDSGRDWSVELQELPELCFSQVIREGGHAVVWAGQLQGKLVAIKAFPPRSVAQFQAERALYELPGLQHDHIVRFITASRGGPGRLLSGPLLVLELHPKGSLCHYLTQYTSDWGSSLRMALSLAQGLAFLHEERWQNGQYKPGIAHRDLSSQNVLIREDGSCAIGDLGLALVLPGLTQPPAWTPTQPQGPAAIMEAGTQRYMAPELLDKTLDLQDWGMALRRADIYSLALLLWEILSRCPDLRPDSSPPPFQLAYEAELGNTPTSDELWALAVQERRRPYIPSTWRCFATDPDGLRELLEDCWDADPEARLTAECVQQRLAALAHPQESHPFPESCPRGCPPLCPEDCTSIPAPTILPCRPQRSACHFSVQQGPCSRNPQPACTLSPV
The test is described as follows: flow cytometry on COV434 WT cells, antibody at 10 µg/ml. The method, then: B) FACS histogram profiles of COV434WT staining at 10 μg/ml of antibodies. C) Percentage of COV434 WT cell staining with the antibodies.
(§1) The COV434 AMHR-II transfected and the COV434 WT cell lines were maintained in DMEM/GlutaMax (Gibco) supplemented with 10% FBS, penicillin 100 U/ml and Streptomycin 100 μg/ml. Geneticin at 666 μg/ml was added for the COV434 AMHR-II transfected cell line. […] After washes, Phycoerythrin-conjugated anti-human IgG antibody (1:200, Beckman-Coulter) was added for 1 hour at room temperature. FACS analysis of the resuspended cells was done on a BD Accuri™ C6 flow cytometer (BD Bioscience).
(§2) FACS analysis with COV434-AMHR-II transfected cell line is described in FIG. 16. […] The binding capacity of these variants was also assayed on the low expressing AMHR-II COV434 WT cell line.
(In general: A flow cytometer gives signals particle by particle.)

For test [2], the target named is T1, human anti-Müllerian hormone type II …. The test is described as follows: flow cytometry on COV434 AMHR-II transfected cells, Hill slope fit. Here is the method:
(§3) Binding was determined by FACS analysis in the range of concentrations 0.034 to 8 μg/ml. Binding data curves were analyzed used specific binding with Hill slope equation from GraphPad Prism.
as §1, §2

For test [3], the target named is T2, AMHR-II-ECD-Fc (R&D System) (human, UniProt Q16671 18-149).
T2 construct: Bought construct; also called recombinant AMHR-II; AMHR-II recombinant protein; not shown: Fc part of the bought AMHR-II-ECD-Fc (R&D System)
In words: ELISA, 50 ng per well AMHR-II-ECD-Fc coated, HRP anti-human F(ab')2 detection. Here is the method:
ELISA plates (96 wells, Maxisorp, NUnc) were coated overnight at +4° C. with 50 ng per well of AMHR-II-ECD-Fc (R&D System). Coated ELISA plates were blocked with PBS-BSA 4% for 2 hours at 37° C. and washed three times with PBS-Tween20 0.05%. […] The bound anti-AMHR-II antibodies were detected by adding HRP-conjugated F(ab′)2 goat anti-human F(ab′2) fragment specific (Interchim) diluted at 1:10000 and incubated for one hour at 37° C. Revelation was done with TMB (Sigma) and the reaction was stopped by adding H2SO4 1N (v:v). Absorbances were measured at 450 nm and binding data curves were analysis using GraphPad Prism.
On the technique in general: In an ELISA, binding on a coated surface is turned into a signal by an enzyme label.

Test [4] concerns the target T2, AMHR-II-ECD-Fc (R&D System). The test is described as follows: SPR (Bia3000), AMHR-II-ECD-Fc immobilised on CM5, antibody injected, Langmuir 1:1 fit. The method, then:
(§4) Immobilization of AMHRII was performed on a Bia3000 apparatus at 25° C. in HBS-EP (HEPES 10 mM, NaCl 150 mM, EDTA 3 mM, P20 surfactant 0.005%) at […] flow rate on CM5 sensor chip using EDC/NHS (1-Ethyl-3-3-dimethylaminopropyl carbodiimidehydrochloride) activation according to the manufacturer's instructions (GEHealthcare). Briefly, carboxyl functions of CM5 sensor chip were activated with 0.4M EDC/0.1M NHS during 7 min. A solution of AMHR-II-ECD-Fc (R&D System) at 2.5 μg/ml in sodium acetate buffer was injected during 12 min. An injection of 1M ethanolamine hydrochloride was used to neutralize the activation. […] A control reference surface was prepared using the same chemical treatment of without injection of AMHRII.
(§5) Antibodies at different concentrations (from 0.5 nM to 133 nM) were injected during 180s on AMHRII-coated flowcell and the control flowcell. After a dissociation step of 400s in running buffer, sensor surfaces were regenerated using 5 μl of Glycine-HCl pH1.7. All the sensorgrams were corrected by subtracting the low signal from the control reference surface. Kinetic parameters were evaluated from the sensorgrams using a Langmuir 1:1 fitting model on the BiaEvaluation 4.2 software.

Test [5] has the same target. The test is described as follows: SPR (Bia3000), AMHR-II-ECD-Fc immobilised; against parental murine 12G4. Here is the method: as §4, §5
Test [6] has as its target T1, human anti-Müllerian hormone type II …. The test is described as follows: flow cytometry on COV434 AMHR2 transfected cells, 0.034 to 8 µg/ml. The method, then:
as §3, §1, §2

Test [7] shares this target. The test is described as follows: flow cytometry on COV434 AMHR-II transfected cells. The method, then: as §3, §1, §2

B1: humanized low fucose 3C23K antibody (antibody, human IgG1, kappa, V domains shown)
VH: QVRLVQSGAEVKKPGASVKVSCKASGYTFTSYHIHWVRQAPGQRLEWMGWIYPGDDSTKYSQKFQGRVTITRDTSASTAYMELSSLRSEDTAVYYCTRGDRFAYWGQGTLVTVSS
VL: DIQMTQSPSTLSASVGDRVTITCRASSSVRYIAWYQQKPGKAPKLLTYPTSSLKSGVPSRFSGSGSGTEFTLTISSLQPDDFATYYCLQWSSYPWTFGGGTKVEIKR
notes: Humanized from murine 12G4, low fucose, prepared as in WO2011/141653A1; also called unconjugated 3C23K; 3C23K unconjugated; copies: 2 + 2
Turning to B1, in test [1], the “percent of COV434 WT cells stained” value turned out to be 9.8%. In test [2], the Kapparent came to 2.2 µg/mL. In addition, the EC50 in test [3] was found to be 0.018 nM. In test [4], this molecule yielded a Ka of 1.81e+10 M⁻¹, a Kd of 0.0553 nM, a dissociation rate constant (koff) of 6.93e-06 s⁻¹ and a kon of 125000 M⁻¹ s⁻¹. For the same molecule, in test [5], the “fold higher association rate against 12G4” value is 5 fold and the “fold lower dissociation rate against 12G4” value came out at 3 fold.

B2: K4D-24 (antibody, V domains shown)
VH: B1 VH with Q1R
VL: DIQMTQSPSTLSASVGDRVTITCRASSSVRYIAWYQQKPGKAPKLLTYPTSSLKSGVPSRFSGSGSGTEFTLTISSLQPDDFATYYCLQWSSYPWTFGGGTKVEIK
notes: Variant of 3C23K with H-Q1R (Kabat)
Take B2: the “percent of COV434 WT cells stained” value in test [1] turned out to be 76.8%. Also, the Kapparent in test [2] is 0.098 µg/mL. In test [6], the “fold affinity improvement against 3C23K” value turned out to be 22 fold. The “fold improvement of Kapparent against 3C23K” value in test [7] turned out to be 20 fold.

B3: 6C59 (antibody, V domains shown)
VH: B1 VH with Q1R
VL: B2 VL with S27P, S28P
notes: Variant of 3C23K with H-Q1R, L-S27P and L-S28P (Kabat)
Take B3: the “percent of COV434 WT cells stained” value in test [1] was 82.2%. Further, in test [2], the Kapparent was determined as 0.05 µg/mL. Also, the “fold improvement of Kapparent against 3C23K” value in test [7] was found to be 40 fold.

B4: murine 12G4 antibody (antibody, from another filing, V domains shown)
VH: QVQLQQSGPELVKPGASVRMSCKASGYTFTSYHIHWVKQRPGQGLEWIGWIYPGDDSTKYNEKFKGKTTLTADKSSSTAYMLLSSLTSEDSAIYFCTRGDRFAYWGQGTLVTVSA
VL: QIVLTQSPAIMSASLGEGITLTCSASSSVRYIHWYQQKSGTSPKLLIYSTSNLASGVPSRFSGSGSGTFHSLTISSVEAEDAADYYCLQWSSYPWTFGGGTKLEIK
In test [4], B4 came in with a Ka of 1.27e+09 M⁻¹, a dissociation constant (Kd) of 0.788 nM, an off-rate (koff) of 2.28e-05 s⁻¹ and a kon of 28900 M⁻¹ s⁻¹.
